Measured values as given in PMC4519987.

Tests used:
SOX17-Flag (rSOX17-Flag) [1] = target: T1, SOX17-Flag (rSOX17-Flag) (UniProt Q9H6I2 1-414); experiment: EMSA; EMSA: 100 mM HEPES pH 8.0, 50 mM KCl, 500 uM DTT, 50 uM EDTA, 1 mM MgCl2, 5% glycerol, 0.02 U poly(dG-dC), 0.3 pmol biotin probe, 300-fold excess competitor; 7%
SOX17-Flag (rSOX17-Flag) [2] = target: T1, SOX17-Flag (rSOX17-Flag); experiment: competition; 300-fold excess vs Lef1_Biot; EMSA: 100 mM HEPES pH 8.0, 50 mM KCl, 500 uM DTT, 50 uM EDTA, 1 mM MgCl2, 5% glycerol, 0.02 U poly(dG-dC), 0.3 pmol biotin probe, 300-fold excess competitor; 7%

T1 sequence (Q9H6I2 whole entry): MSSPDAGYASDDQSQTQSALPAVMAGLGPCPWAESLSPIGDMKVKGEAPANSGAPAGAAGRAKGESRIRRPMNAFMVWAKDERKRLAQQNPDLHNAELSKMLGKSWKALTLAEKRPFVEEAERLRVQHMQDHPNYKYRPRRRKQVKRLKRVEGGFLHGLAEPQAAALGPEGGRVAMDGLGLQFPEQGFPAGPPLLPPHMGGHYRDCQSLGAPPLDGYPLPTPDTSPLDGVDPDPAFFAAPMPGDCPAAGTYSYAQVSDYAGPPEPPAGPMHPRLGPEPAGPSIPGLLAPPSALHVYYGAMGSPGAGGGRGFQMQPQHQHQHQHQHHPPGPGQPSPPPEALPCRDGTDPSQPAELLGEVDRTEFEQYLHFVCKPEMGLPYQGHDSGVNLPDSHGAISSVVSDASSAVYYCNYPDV

B1: Lef1_Biot (dsDNA)
DNA 1: CATTTCTTTATGTCCTTTGTTTACTGTTCTG
DNA 2: CAGAACAGTAAACAAAGGACATAAAGAAATG
binding result (SOX17-Flag (rSOX17-Flag) [1]): binds

B2: Lef1_s1 (dsDNA)
DNA 1: B1 DNA 1
DNA 2: B1 DNA 2
binding result (SOX17-Flag (rSOX17-Flag) [2]): binds

B3: Lef1_Δ_s1 (dsDNA)
DNA 1: CATTTCTTTATGTCAGGGTGGTACTGTTCTG
DNA 2: CAGAACAGTACCACCCTGACATAAAGAAATG
binding result (SOX17-Flag (rSOX17-Flag) [2]): no binding
